Measurements reported in patent US20200247886A1 (ZLIP, published 2020).

Assays:
[1] = target: T1, human CD47 expressed on cells (CD47 expressing CHO cells, Jurkat, HL60, DLD1, Raji) (human, UniProt Q08722 19-292); experiment: flow cytometry on DLD1 cells, IgG, frequency
T1 construct: also called CHO-CD47; IAP

[2] = target: T1, human CD47 expressed on cells (CD47 …); experiment: IC50 as grade, SIRPα blocking on Raji cells (second part of the table); legend +++: <1 nM
[3] = target: T1, human CD47 expressed on cells (CD47 …); experiment: IC50 as grade, SIRPα blocking on Raji cells; legend +++: <1 nM
[4] = target: T1, human CD47 expressed on cells (CD47 …); experiment: IC50 (nM) MFI as grade, blocking biotinylated SIRPa-Fc binding to DLD1 cells; legend +++: <1 nM
[5] = target: T1, human CD47 expressed on cells (CD47 …); experiment: flow cytometry on human red blood cells, donor 2, MFI
[6] = target: T2, biotin labelled polyhistidine tagged CD47 protein (Novoprotein, Cat#321) (human, UniProt Q08722 19-139, biotin labelled (site not stated)); experiment: flow cytometry blocking assay: antibody mixed with biotinylated human CD47 protein; blocked ligand SIRPα on cells; binding percentage
T2 construct: Bought protein; also called biotinylated CD47; biotinylated human CD47 protein; not shown: polyhistidine tag

[7] = target: T3, His-tagged CD47 (Homo sapiens (Human), UniProt Q08722 19-139, limits assumed); experiment: IC50 (nM) MFI as grade, blocking His-tagged CD47 binding to SIRPα-CHO cells; legend +: >2.7 nM
T3 construct: not shown: His tag

[8] = target: T1, human CD47 expressed on cells (CD47 …); experiment: flow cytometry blocking assay: 100 nM biotinylated SIRPa-Fc (blocked ligand) on DLD1 cells expressing CD47, frequency
[9] = target: T3, His-tagged CD47; experiment: IC50 (nM) Frequency as grade, blocking His-tagged CD47 binding to SIRPα-CHO cells; legend +: >2.7 nM
[10] = target: T1, human CD47 expressed on cells (CD47 …); experiment: flow cytometry blocking assay: 100 nM biotinylated SIRPa-Fc (blocked ligand) on DLD1 cells expressing CD47, MFI
[11] = target: T1, human CD47 expressed on cells (CD47 …); experiment: flow cytometry SIRP-alpha blocking assay on Raji cells, MFI
[12] = target: T1, human CD47 expressed on cells (CD47 …); experiment: flow cytometry on CD47 expressing CHO cells, MFI (FL-4)
[13] = target: T1, human CD47 expressed on cells (CD47 …); experiment: flow cytometry blocking assay on Raji cells, SIRPα is the blocked ligand, MFI
[14] = target: T3, His-tagged CD47; experiment: flow cytometry blocking assay: His-tagged CD47 with Fab on SIRPα-expressing CHO cells (SIRPα is the blocked ligand), anti-His-APC, MFI
[15] = target: T3, His-tagged CD47; experiment: flow cytometry blocking assay: His-tagged CD47 with Fab on SIRPα-expressing CHO cells (SIRPα is the blocked ligand), anti-His-APC, frequency
[16] = target: T1, human CD47 expressed on cells (CD47 …); experiment: flow cytometry on human red blood cells, donor 1, MFI
[17] = target: T1, human CD47 expressed on cells (CD47 …); experiment: IC50 (nM) Frequency as grade, blocking biotinylated SIRPa-Fc binding to DLD1 cells; legend ++: >1 nM and <20 nM
[18] = target: T1, human CD47 expressed on cells (CD47 …); experiment: flow cytometry on human platelets, donor 2, MFI
[19] = target: T1, human CD47 expressed on cells (CD47 …); experiment: flow cytometry on DLD1 cells, IgG, MFI
[20] = target: T1, human CD47 expressed on cells (CD47 …); experiment: flow cytometry blocking assay on Raji cells, SIRPα is the blocked ligand, MFI; remark: listed apart in the source
[21] = target: T1, human CD47 expressed on cells (CD47 …); experiment: EC50 (nM) as grade, flow cytometry, Fab on HL60 cells; legend ++: >1 nM and <7 nM
[22] = target: T3, His-tagged CD47; experiment: IC50 (nM) MFI as grade, blocking His-tagged CD47 binding to SIRPα-CHO cells; legend +++: <2 nM
[23] = target: T1, human CD47 expressed on cells (CD47 …); experiment: EC50 (nM) as grade, flow cytometry, Fab on DLD1 cells; legend +++: <5 nM
[24] = target: T3, His-tagged CD47; experiment: IC50 (nM) Frequency as grade, blocking His-tagged CD47 binding to SIRPα-CHO cells; legend ++: >2 nM and <2.7 nM
[25] = target: T1, human CD47 expressed on cells (CD47 …); experiment: flow cytometry on DLD1 cells, Fab, frequency
[26] = target: T2, biotin labelled polyhistidine tagged …; experiment: flow cytometry blocking assay: biotinylated CD47 with Fab on SIRPα-expressing CHO cells (SIRPα is the blocked ligand), frequency
[27] = target: T1, human CD47 expressed on cells (CD47 …); experiment: flow cytometry on HL60 cells, Fab, frequency
[28] = target: T2, biotin labelled polyhistidine tagged …; experiment: IC50 (nM) as grade, Fab blocking biotinylated CD47 binding to SIRPα-CHO cells; legend +++: <10 nM
[29] = target: T1, human CD47 expressed on cells (CD47 …); experiment: EC50 (nM) as grade, flow cytometry, Fab on HL60 cells; legend +: >7 nM
[30] = target: T2, biotin labelled polyhistidine tagged …; experiment: IC50 (nM) as grade, Fab blocking biotinylated CD47 binding to SIRPα-CHO cells; legend ++: >10 nM and <65 nM

B1: Positive 3 (analogue antibody) (antibody, V domains shown)
VH: QMQLVQSGAEVKKTGSSVKVSCKASGFNIKDYYLHWVRQAPGQALEWMGWIDPDQGDTEYAQKFQDRVTITRDRSMSTAYMELSSLRSEDTAMYYCNAAYGSSSYPMDYWGQGTTVTV
VL: NIQMTQSPSAMSASVGDRVTITCKASQDIHRYLSWFQQKPGKVPKHLIYRANRLVSGVPSRFSGSGSGTEFTLTISSLQPEDFATYYCLQYDEFPYTFGGGTKVEIK
- EC50 (read off the curve) [1]: ~0.07 nM
- IC50 [2]: < 1 nM
- IC50 [3]: < 1 nM
- IC50 [4]: < 1 nM
- EC50 (read off the curve) [5]: ~1 nM
- IC50 (read off the curve) [6]: ~1 nM
- IC50 [7]: > 2.7 nM
- IC50 (read off the curve) [8]: ~1 nM
- IC50 [9]: > 2.7 nM
- IC50 (read off the curve) [10]: ~0.3 nM
- IC50 (read off the curve) [11]: ~0.6 nM
- EC50 (read off the curve) [12]: ~1 nM
- IC50 (read off the curve) [13]: ~0.6 nM
- IC50 (read off the curve) [14]: ~3 nM
- IC50 (read off the curve) [15]: ~3 nM
- EC50 (read off the curve) [16]: ~1 nM
- IC50 [17]: 1 to 20 nM
- EC50 (read off the curve) [18]: ~0.6 nM
- EC50 (read off the curve) [19]: ~0.6 nM
- IC50 (read off the curve) [20]: ~0.9 nM

B2: ABU9 (Fab) (Fab, V domains shown)
VH: EVQLQQSGPELVKPGASVKLSCKASGFTFTNYYIHWVKQRPGQGPEWIGWIYLGSGNTKYNEKFKGKATLTADTSSSTAYLQLSTLISEDSAVYYCARYDYDLYLDSWGQGTTVTVSS
VL: DIKMNQSPSSLSASLGDTITITCHASQNINVWLSWYQQKPGNIPKLLIYKASNLHTGVPSRFSGSGSGTGFTLTISSLQPEDIATYYCQQGQSYPLTFGAGTKLELK
notes: Phage-derived Fab: murine VL and VH fused to human CL and CH1
- EC50 [21]: 1 to 7 nM
- IC50 [22]: < 2 nM
- EC50 [23]: < 5 nM
- IC50 [24]: 2 to 2.7 nM
- IC50 (read off the curve) [14]: ~2 nM
- EC50 (read off the curve) [25]: ~2 nM
- IC50 (read off the curve) [15]: ~3 nM
- IC50 (read off the curve) [26]: ~9 nM
- EC50 (read off the curve) [27]: ~6 nM
- IC50 [28]: < 10 nM

B3: ABU14 (Fab) (Fab, V domains shown)
VH: EVQLQQSGPELVKPGASVKISCKASGYSFTNYHIHWVKQRPGQGLEWIGWIYPGSGNTKYNEKFKGMAILTADTSSSTAYMQLSSLTSEDSAVYYCARYDYDLYLHSWGQGTTVTVSS
VL: DIQINQSPSSLSASLGDTITITCHASQNINVWLSWYQQKPGNIPKLLIYKASNLHTGVPSRFSGSGSGTGFTLTISSLQPEDIATYYCQQGQSYPLTFGAGTKLEIK
notes: as for B2
- EC50 [29]: > 7 nM
- IC50 [22]: < 2 nM
- IC50 [30]: 10 to 65 nM
- EC50 [23]: < 5 nM
- IC50 [24]: 2 to 2.7 nM
- IC50 (read off the curve) [14]: ~2 nM
- EC50 (read off the curve) [25]: ~4 nM
- IC50 (read off the curve) [15]: ~3 nM
- IC50 (read off the curve) [26]: ~20 nM
- EC50 (read off the curve) [27]: ~10 nM
